Data set [1] has as its target full-length TFPI (fl-TFPI, TFPI alpha) (Homo sapiens) (UniProt P10646). The data set is described as follows: SPR. The following applies: biotinylated, nucleotide sequence identical to BAX 499; ka 6.7e7 1/Ms, kd 6.6e-4 1/s; 37 C, HBS pH 7.4, 0.1% P20, 3 mM CaCl2; aptamer immobilized.
The target is the same in data set [2]. The data set is described as follows: inhibition. The settings on record: PEG.

full-length TFPI (fl-TFPI, TFPI alpha) (Homo sapiens), sequence (P10646 29-304): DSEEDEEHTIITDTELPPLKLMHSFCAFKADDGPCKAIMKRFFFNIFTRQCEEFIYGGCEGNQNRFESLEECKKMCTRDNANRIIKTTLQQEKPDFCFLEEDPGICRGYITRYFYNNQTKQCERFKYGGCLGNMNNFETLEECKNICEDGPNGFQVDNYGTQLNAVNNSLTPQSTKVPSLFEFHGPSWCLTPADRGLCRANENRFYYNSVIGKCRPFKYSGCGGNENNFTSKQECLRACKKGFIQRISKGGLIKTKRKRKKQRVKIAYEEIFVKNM

The substance ARC28635 had a Kd in data set [1] of 0.015 nM.

Usually EC50 stands for the concentration giving half of the maximal effect. For the substance BAX 499, the Kd in data set [2] (apparent Kd from relief of TFPI inhibition of TF/FVIIa, 12 nM TFPI, FXa independent, TFPI source not stated in this example) amounted to 1.2 nM. The same substance came in with an activity in data set [2] (aptamer giving about 50% recovery of extrinsic FXase activity with 3 nM TFPI, 75-80% recovery at saturation) of 50 nM. Further, in data set [2] (extrinsic tenase assay at 0.25 nM TFPI, maximal reversal 58% at 1000 nM, EC50 rises with TFPI level), the EC50 was determined as 12 nM.

The values above are taken from patent US20130267584.
